Assay results: PMC9482650, “Quantitative fragmentomics allow affinity mapping of interactomes” (Nature Communications, 2022)
Each block holds one binder with its values, some of them ahead of it.

How the values were obtained:
Experiment in all cases: holdup assay
Set-up in all cases: key: below the threshold = too weak to quantify, mostly under pKd 3.1 to 4
[1] = biological target: T1, PDZD2_2, O15018
T1 sequence (O15018 329-429, limits assumed, looked up): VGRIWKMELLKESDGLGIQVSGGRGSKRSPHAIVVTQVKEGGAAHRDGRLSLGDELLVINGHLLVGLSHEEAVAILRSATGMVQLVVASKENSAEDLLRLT

[2] = biological target: SCRIB_3, Q14160
SCRIB_3, Q14160, sequence (Q14160 999-1103): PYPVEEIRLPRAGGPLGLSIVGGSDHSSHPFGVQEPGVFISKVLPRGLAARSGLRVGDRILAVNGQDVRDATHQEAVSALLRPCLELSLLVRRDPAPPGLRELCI

[3] = biological target: DLG1_1, Q12959
[4] = biological target: HTRA1, Q92743
HTRA1, Q92743, sequence (Q92743 360-477): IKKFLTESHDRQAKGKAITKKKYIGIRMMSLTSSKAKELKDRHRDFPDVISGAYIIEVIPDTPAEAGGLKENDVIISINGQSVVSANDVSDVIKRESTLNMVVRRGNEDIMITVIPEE

[5] = biological target: TJP1_2, Q07157
TJP1_2, Q07157, sequence (Q07157 181-274): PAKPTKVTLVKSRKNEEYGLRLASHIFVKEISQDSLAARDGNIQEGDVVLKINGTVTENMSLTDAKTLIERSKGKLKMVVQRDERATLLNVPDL

[6] = biological target: T2, DFNB31_2, Q9P202
T2 sequence (Q9P202 274-371, limits assumed, looked up): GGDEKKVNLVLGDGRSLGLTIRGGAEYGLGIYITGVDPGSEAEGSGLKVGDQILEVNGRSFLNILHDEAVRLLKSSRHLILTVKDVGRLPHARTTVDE

[7] = biological target: T3, MPP6, Q9NZW5
T3 sequence (Q9NZW5 125-219, limits assumed, looked up): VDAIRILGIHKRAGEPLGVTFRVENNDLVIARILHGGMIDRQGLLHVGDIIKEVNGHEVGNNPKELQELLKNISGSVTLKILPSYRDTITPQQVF

[8] = biological target: GRIP2_6, Q9C0E4
GRIP2_6, Q9C0E4, sequence (Q9C0E4 648-740): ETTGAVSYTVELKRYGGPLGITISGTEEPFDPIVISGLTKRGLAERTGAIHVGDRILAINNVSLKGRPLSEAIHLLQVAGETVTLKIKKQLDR

[9] = biological target: GRIP2_3, Q9C0E4
GRIP2_3, Q9C0E4, sequence (Q9C0E4 238-339): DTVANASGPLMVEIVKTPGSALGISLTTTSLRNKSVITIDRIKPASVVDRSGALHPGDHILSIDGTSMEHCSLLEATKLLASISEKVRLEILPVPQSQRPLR

[10] = biological target: T4, DVL3, Q92997
T4 sequence (Q92997 244-331, limits assumed, looked up): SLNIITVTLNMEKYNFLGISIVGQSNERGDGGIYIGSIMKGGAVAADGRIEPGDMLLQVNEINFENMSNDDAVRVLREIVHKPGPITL

[11] = biological target: IL16_3, Q14005
IL16_3, Q14005, sequence (Q14005 1107-1207): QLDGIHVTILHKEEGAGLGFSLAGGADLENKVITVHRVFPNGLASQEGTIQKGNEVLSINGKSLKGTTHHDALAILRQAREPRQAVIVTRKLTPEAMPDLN

[12] = biological target: T5, LNX2_3, Q8N448
T5 sequence (Q8N448 463-564, limits assumed, looked up): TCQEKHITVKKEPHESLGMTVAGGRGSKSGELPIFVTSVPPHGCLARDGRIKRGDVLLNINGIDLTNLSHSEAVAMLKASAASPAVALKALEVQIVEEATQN

[13] = biological target: DLG5_1, Q8TDM6
DLG5_1, Q8TDM6, sequence (Q8TDM6 617-713): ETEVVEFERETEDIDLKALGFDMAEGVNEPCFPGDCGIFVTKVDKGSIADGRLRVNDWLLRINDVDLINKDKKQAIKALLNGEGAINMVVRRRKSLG

[14] = biological target: NHERF4_1, Q86UT5-2
NHERF4_1, Q86UT5-2, sequence (Q86UT5 other isoform, or with tags, fused parts or gaps): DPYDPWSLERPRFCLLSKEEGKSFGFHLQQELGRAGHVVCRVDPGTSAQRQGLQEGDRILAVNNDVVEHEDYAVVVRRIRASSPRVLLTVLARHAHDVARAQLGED

[15] = biological target: IL16_4, Q14005
IL16_4, Q14005, sequence (Q14005 1229-1329): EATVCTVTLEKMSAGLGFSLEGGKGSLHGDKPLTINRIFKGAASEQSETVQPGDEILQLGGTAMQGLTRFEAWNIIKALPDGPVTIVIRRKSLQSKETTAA

[16] = biological target: T6, SNTB1, Q13884
T6 sequence (Q13884 107-205, limits assumed, looked up): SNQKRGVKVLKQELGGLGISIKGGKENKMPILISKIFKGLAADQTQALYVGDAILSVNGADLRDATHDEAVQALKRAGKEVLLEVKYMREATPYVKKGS

[17] = biological target: T7, MPDZ_10, O75970
T7 sequence (O75970 1624-1722, limits assumed, looked up): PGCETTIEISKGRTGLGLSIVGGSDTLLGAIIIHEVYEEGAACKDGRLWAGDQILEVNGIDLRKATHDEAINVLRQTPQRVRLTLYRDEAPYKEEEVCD

[18] = biological target: SCRIB_2, Q14160
SCRIB_2, Q14160, sequence (Q14160 857-960): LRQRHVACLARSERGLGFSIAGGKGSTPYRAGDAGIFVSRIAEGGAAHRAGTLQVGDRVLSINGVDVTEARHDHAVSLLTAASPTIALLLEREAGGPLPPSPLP

[19] = biological target: T8, RAPGEF6, Q8TEU7
T8 sequence (Q8TEU7 525-625, limits assumed, looked up): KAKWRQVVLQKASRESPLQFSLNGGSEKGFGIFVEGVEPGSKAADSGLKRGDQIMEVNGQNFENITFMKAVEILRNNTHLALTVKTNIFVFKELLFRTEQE

[20] = biological target: LIMK2, P53671
LIMK2, P53671, sequence (P53671 143-248): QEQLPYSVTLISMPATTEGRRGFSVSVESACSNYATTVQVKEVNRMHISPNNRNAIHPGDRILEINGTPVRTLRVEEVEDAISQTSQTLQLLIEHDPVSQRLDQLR

[21] = biological target: TJP2_1, Q9UDY2
TJP2_1, Q9UDY2, sequence (Q9UDY2 24-128): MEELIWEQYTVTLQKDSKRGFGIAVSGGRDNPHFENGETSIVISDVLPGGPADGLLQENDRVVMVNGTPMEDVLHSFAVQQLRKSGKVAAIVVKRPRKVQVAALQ

[22] = biological target: SNX27, Q96L92
[23] = biological target: GRASP, Q7Z6J2
GRASP, Q7Z6J2, sequence (Q7Z6J2 96-193): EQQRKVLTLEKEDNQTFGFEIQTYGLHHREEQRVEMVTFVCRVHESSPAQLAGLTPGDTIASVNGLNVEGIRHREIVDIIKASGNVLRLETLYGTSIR

[24] = biological target: T9, APBA2_1, Q99767
T9 sequence (Q99767 563-664, limits assumed, looked up): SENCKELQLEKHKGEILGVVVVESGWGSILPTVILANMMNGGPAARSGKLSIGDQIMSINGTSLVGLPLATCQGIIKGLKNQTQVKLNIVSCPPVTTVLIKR

[25] = biological target: T10, ARHGEF11, O15085
T10 sequence (O15085 42-136, limits assumed, looked up): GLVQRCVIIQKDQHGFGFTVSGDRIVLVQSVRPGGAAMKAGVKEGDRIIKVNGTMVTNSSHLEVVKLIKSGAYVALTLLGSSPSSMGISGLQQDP

[26] = biological target: T11, APBA2_2, Q99767
T11 sequence (Q99767 654-744, limits assumed, looked up): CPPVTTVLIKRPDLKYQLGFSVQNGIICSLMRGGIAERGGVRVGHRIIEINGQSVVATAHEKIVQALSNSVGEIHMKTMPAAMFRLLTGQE

[27] = plain residues with an end cap or a label only (N-terminal biotin on a linker: ttds)
[28] = plain residues with an end cap or a label only (N-terminal biotin on a linker: ado-ado)

pKd [1, 27]: 3.59
pKd [2, 27]: below the threshold
pKd [3, 27]: 4.06
pKd [4, 27]: 3.61
pKd [5, 27]: below the threshold
pKd [6, 27]: below the threshold
pKd [7, 27]: 3.54
pKd [8, 27]: below the threshold
pKd [9, 27]: below the threshold
pKd [10, 27]: below the threshold
pKd [11, 27]: below the threshold
pKd [12, 27]: below the threshold
pKd [13, 27]: below the threshold
pKd [14, 27]: below the threshold
pKd [15, 27]: 3.6
pKd [16, 27]: 4.29
pKd [17, 27]: 3.51
pKd [18, 27]: 3.47
pKd [19, 27]: below the threshold
pKd [20, 27]: 3.7
pKd [21, 27]: below the threshold
pKd [22, 27]: 4.57
pKd [23, 27]: below the threshold
pKd [24, 27]: below the threshold
pKd [25, 27]: below the threshold
pKd [26, 27]: below the threshold
Binder: CNTVTVETVV [MAS1, P04201]

pKd [1, 28]: 3.62
pKd [2, 28]: 3.57
pKd [3, 28]: below the threshold
pKd [4, 28]: 3.5
pKd [5, 28]: below the threshold
pKd [6, 28]: below the threshold
pKd [7, 28]: below the threshold
pKd [8, 28]: below the threshold
pKd [9, 28]: 3.51
pKd [10, 28]: below the threshold
pKd [11, 28]: below the threshold
pKd [12, 28]: 3.51
pKd [13, 28]: 3.49
pKd [14, 28]: 3.93
pKd [15, 28]: below the threshold
pKd [16, 28]: below the threshold
pKd [17, 28]: below the threshold
pKd [18, 28]: 3.54
pKd [19, 28]: below the threshold
pKd [20, 28]: below the threshold
pKd [21, 28]: below the threshold
pKd [22, 28]: 4
pKd [23, 28]: 3.86
pKd [24, 28]: 3.49
pKd [25, 28]: 3.79
pKd [26, 28]: below the threshold
Binder: EDLTKNHDEL [RCN1, Q15293]

pKd [1, 27]: 4.36
pKd [2, 27]: 5.17
pKd [3, 27]: 3.64
pKd [4, 27]: below the threshold
pKd [5, 27]: below the threshold
pKd [6, 27]: below the threshold
pKd [7, 27]: below the threshold
pKd [8, 27]: below the threshold
pKd [9, 27]: below the threshold
pKd [10, 27]: below the threshold
pKd [11, 27]: below the threshold
pKd [12, 27]: below the threshold
pKd [13, 27]: below the threshold
pKd [14, 27]: below the threshold
pKd [15, 27]: below the threshold
pKd [16, 27]: 4.93
pKd [17, 27]: below the threshold
pKd [18, 27]: 4.45
pKd [19, 27]: below the threshold
pKd [20, 27]: below the threshold
pKd [21, 27]: below the threshold
pKd [22, 27]: 5.73
pKd [23, 27]: below the threshold
pKd [24, 27]: below the threshold
pKd [25, 27]: below the threshold
pKd [26, 27]: below the threshold
Binder: LDSQIQETSI [MAP4, P27816]
